Several values for one entry are separate records, joined by “and”; a condition that tells them apart may be missing. Equal values may be shown once.
Columns and labels:
[1] = molecular target: Hemagglutinin (HA) of Influenza A virus A/Parma/5/06 (Wisconsin-like) H3N2 (Influenza A virus A/Parma/05/06 H3N2); test: cell-based or functional assay
[2] = molecular target: Hemagglutinin (HA) of Influenza A virus A/Puerto Rico/8/34 H1N1 (PR8 virus) (Influenza A virus A/Puerto Rico/8/34 H1N1) (UniProt P03452); test: cell-based or functional assay
[3] = molecular target: Hemagglutinin (HA) of Influenza A virus A/Roma-ISS/2/08 (Brisbane-like) (oseltamivir-sensitive) H1N1 (Influenza A virus A/RomaISS/2/08 H1N1); test: cell-based or functional assay
[4] = molecular target: Hemagglutinin (HA) of Influenza A virus A/Turkey/Italy/2676/99 H7N1 (Influenza A virus A/Turkey/Italy/2676/99 H7N1); test: cell-based or functional assay
[5] = molecular target: Hemagglutinin (HA) of Influenza A virus A/Roma-ISS/2/08 (Brisbane-like) (oseltamivir-sensitive) H1N1 (Influenza A virus A/RomaISS/2/08 H1N1)

For “… (SEQ ID NO: 2), bLf C-lobe peptide 506-522”, the HI titre [1] was 0.7 pM, the HI titre [2] was 0.35 nM and the HI titre [3] was 1.4 pM. The HI titre [4] was 46.5 fM.

In the case of “… (SEQ ID NO: 1), bLf C-lobe peptide 418-429”, the HI titre [1] is reported as 0.7 pM, the HI titre [2] is reported as 0.7 nM and the HI titre [3] is reported as 1.4 pM. For the same substance, the HI titre [4] was 18 fM.

With “Lactoferrin from bovine milk (bLf) (from UniProt P24627 20-708)” the percentage of virus binding to bLf [5] was 52.9% and 34.1% and 47.2%, the HI titre [1] was 3000 pM and the HI titre [2] was 3 nM. It also gave an HI titre [3] of 6000 pM and an HI titre [4] of 93.1 fM.
